Source: patent US7476500

How the values were obtained:
Assay in all cases: cell_activity
[1] = system: I-ScaI; settings: three site copies in pBar2, E. coli
[2] = system: I-ScaI I250N I250N; settings: three site copies in pBar2, E. coli
[3] = system: I-ScaI D90S D90S; settings: catalytically inactive, background; binding not tested

TGAGGTGCACTAGTTA (double strand) [I-ScaI site]
activity [1]: 65 % survival | activity [2]: 27 % survival | activity [3]: 18 % survival
